Substrate in series [1]: O=c1[nH]c(=O)c2ncn([C@@H]3O[C@H](CO)[C@@H](O)[C@H]3O)c2[nH]1
Description: HPLC of nucleoside hydrolysis, Michaelis-Menten. The note with it: 50 mM Tris-HCl pH 7.5, 1 mM DTT, 40 °C, apparent Km. The class given is biochemical, Phaseolus vulgaris. An excerpt:
(§1) HPLC of nucleoside hydrolysis, Michaelis-Menten on PvNSH2

Substrate in series [2]: OC[C@H]1O[C@@H](n2cnc3c(O)ncnc32)[C@H](O)[C@@H]1O
Description: HPLC of nucleoside hydrolysis, Michaelis-Menten. The class given is biochemical, Phaseolus vulgaris. To be noted: 50 mM Tris-HCl pH 7.5, 1 mM DTT, 40 °C, apparent Km.
Excerpt: as §1

B1: PvNSH2 (Phaseolus vulgaris) (protein)
chain: MAADTEPKKIIIDTDPGIDDAMAIFVALQSPEIEVIGLTTIYGNVYTTLATRNALHLLEVAGRTDIPVAEGTHLTLTKGTKLRIADFVHGADGLGNQNFPPPKGKPIEESAASFLVRQAKLNPGKVTVVALGPLTNIALAIELDPEFVKNIGQIVILGGAFAVNGNVNPAAEANIFGDPDAADVVFTSGADILALGINVTHQVILTSSDREILASSNGKFAQYLHKILDVYFSYHQESYNTKGVYLHDPTVVLAAVDPSLVTCIEGIVRVQTSGITRGLTLLYNKQKRFGEIHEWSNKPTVKVAVTVDAPRVMKLVMDRLLDS
notes: no N. benthamiana NSH1 detected by MS; locus assigned by print order
In general, Km refers to the concentration of substrate that gives half-maximal velocity. The term kcat denotes the maximal rate divided by the concentration of active sites. Usually kcat/Km stands for the second-order rate constant that governs catalysis at low substrate concentration. With B1, in series [1], the Km amounted to 120 ± 20 µM, the catalytic constant (kcat) is 13.2 ± 0.26 s⁻¹ and the kcat/Km was determined as 116000 ± 15200 M⁻¹ s⁻¹. In series [2], the Km was 210 ± 20 µM, the kcat turned out to be 2.91 ± 0.14 s⁻¹ and the kcat/Km was 13700 ± 640 M⁻¹ s⁻¹.

The record behind these values is PMC8027947, “Nucleoside Metabolism Is Induced in Common Bean During Early Seedling Development” (Frontiers in Plant Science, 2021).
